Laboratory results reported in patent US11098333B2, “ATP phosphoribosyltransferase variant and method for producing L-histidine using the same” (priority 2017, dated 2021).

T1: ATP phosphoribosyltransferase (HisG) (Corynebacterium glutamicum, UniProt Q9Z472)
T1 construct: made in house; host or cells: Corynebacterium glutamicum ATCC 13032 (wild type) and HCJ-96, -161, -162, -163, -164, -165 (chromosomal hisG alleles); unpurified supernatant of sonicated cells
T1 sequence (Q9Z472 whole entry, looked up): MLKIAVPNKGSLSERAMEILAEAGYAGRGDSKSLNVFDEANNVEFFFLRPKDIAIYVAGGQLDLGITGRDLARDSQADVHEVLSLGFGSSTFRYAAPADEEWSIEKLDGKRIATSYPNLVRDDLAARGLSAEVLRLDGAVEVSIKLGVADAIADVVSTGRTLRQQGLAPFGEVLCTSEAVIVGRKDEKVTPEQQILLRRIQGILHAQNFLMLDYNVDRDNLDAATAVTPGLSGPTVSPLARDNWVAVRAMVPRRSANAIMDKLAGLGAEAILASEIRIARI


Legend:
[1] = system: ATP phosphoribosyltransferase (HisG); experiment: Measurement of activities of ATP phosphoribosyltransferases (UV 290 nm, cell supernatant); assay type: biochemical, Corynebacterium glutamicum; conditions: for Activity of ATP phosphoribosyltransferase (HisG): 30° C., UV 290 nm, no L-histidine
Procedure: Corynebacterium glutamicum ATCC 13032 and the strains HCJ-96, HCJ-161, HCJ-162, HCJ-163, HCJ-164, and HCJ-165 selected in Example 3 were each inoculated into a corner-baffle flask (250 mL) containing a seed medium (25 mL), and were cultured at 30° C. for 20 hours with shaking at 200 rpm to obtain a seed culture solution. Thereafter, the seed culture solution (1 mL) was inoculated into a corner-baffle flask (250 mL) containing a production medium (24 mL), and was cultured at 30° C. for 45 hours at 200 rpm. After the culture, the obtained cells were sonicated and centrifuged, and the supernatant obtained therefrom was used for evaluation of the activity of ATP phosphoribosyltransferase.
The activities of the ATP phosphoribosyltransferase variants obtained in Example 4-1 and that of a wild-type ATP phosphoribosyltransferase variant were measured. The evaluation of the activities of these enzymes was performed with reference to the conditions described in an existing literature report (Biochimie. 2012 March; 94(3):829-38.).
For the evaluation of the activities of the enzymes, the supernatant was quantified to give the same concentration. These enzymes were used as sample enzymes, and the reaction conditions were as follows: the reaction compositions were mixed to the quantified protein (0.05 mg) to give a total amount of 500 μL, and then measured at 30° C. at a UV wavelength of 290 nm for 90 seconds. With regard to the wild-type ATP phosphoribosyltransferase having low activity, the supernatant protein (0.3 mg) was used and measured at a UV wavelength of 290 nm for 30 minutes for the activity evaluation. The composition of the reaction solution for measuring the activities of the enzymes is as follows: […]

[2] = target: T2, ATP phosphoribosyltransferase (HisG) (Corynebacterium glutamicum, UniProt Q9Z472, G233H/N215R/T235Q); experiment: Degree of inhibition by L-histidine on activities of ATP phosphoribosyltransferase variants; assay type: biochemical; conditions: L-histidine 100 mM
T2 construct: made in house; host or cells: Corynebacterium glutamicum ATCC 13032 (wild type) and HCJ-96, -161, -162, -163, -164, -165 (chromosomal hisG alleles); unpurified supernatant of sonicated cells
Procedure: (§1) For the evaluation of the activities of the enzymes, the supernatant was quantified to give the same concentration. These enzymes were used as sample enzymes, and the reaction conditions were as follows: the reaction compositions were mixed to the quantified protein (0.05 mg) to give a total amount of 500 μL, and then measured at 30° C. at a UV wavelength of 290 nm for 90 seconds. With regard to the wild-type ATP phosphoribosyltransferase having low activity, the supernatant protein (0.3 mg) was used and measured at a UV wavelength of 290 nm for 30 minutes for the activity evaluation. The composition of the reaction solution for measuring the activities of the enzymes is as follows:
(§2) The degree of inhibition by L-histidine on the activities of ATP phosphoribosyltransferase and the ATP phosphoribosyltransferase variants obtained in Example 4-1 was measured. Specifically, the activities of these enzymes were measured in the reaction composition solution of Example 4-2, which contained L-histidine (0 mM, 50 mM, or 100 mM), using the method described in Example 4-2. […] However, the activities of the ATP phosphoribosyltransferase variants were less inhibited by L-histidine.

[3] = system: ATP phosphoribosyltransferase (HisG); experiment: as above; assay type: biochemical, Corynebacterium glutamicum; conditions: for Activity of Enzyme, 0 mM L-histidine: L-histidine 0 mM; for Activity of Enzyme, 50 mM L-histidine: L-histidine 50 mM; for Activity of Enzyme, 100 mM L-histidine: L-histidine 100 mM
Procedure: as §1, §2

[4] = target: T1, ATP phosphoribosyltransferase (HisG); experiment: as above; assay type: biochemical; conditions: L-histidine 50 mM and 100 mM
Procedure: as §1, §2

Molecule	Activity of ATP phosphoribosyltransferase (HisG) [1]	activity fold higher than that of the wild-type enzyme ([1]; relative to wild-type enzyme)	activity in composition solution containing L-histidine (in words) [2]	Activity of Enzyme, 0 mM L-histidine [3]	Activity of Enzyme, 50 mM L-histidine [3]	Activity of Enzyme, 100 mM L-histidine [3]	inhibition of enzyme activity by L-histidine (in words) [4]
HisG (N215R/G233H/T235Q): ATP phosphoribosyltransferase variant N215R/G233H/T235Q, SEQ ID NO: 1 (protein, HisG) MLKIAVPNKGSLSERAMEILAEAGYAGRGDSKSLNVFDEANNVEFFFLRPKDIAIYVAGGQLDLGITGRDLARDSQADVHEVLSLGFGSSTFRYAAPADEEWSIEKLDGKRIATSYPNLVRDDLAARGLSAEVLRLDGAVEVSIKLGVADAIADVVSTGRTLRQQGLAPFGEVLCTSEAVIVGRKDEKVTPEQQILLRRIQGILHAQNFLMLDYRVDRDNLDAATAVTPGLSHPQVSPLARDNWVAVRAMVPRRSANAIMDKLAGLGAEAILASEIRIARI	2.082 U/mg	about 160 fold	showed the highest activity	2.082 U/mg	1.435 U/mg	1.335 U/mg	–
HisG: wild-type Corynebacterium glutamicum ATP phosphoribosyltransferase, SEQ ID NO: 13 (protein, HisG) MLKIAVPNKGSLSERAMEILAEAGYAGRGDSKSLNVFDEANNVEFFFLRPKDIAIYVAGGQLDLGITGRDLARDSQADVHEVLSLGFGSSTFRYAAPADEEWSIEKLDGKRIATSYPNLVRDDLAARGLSAEVLRLDGAVEVSIKLGVADAIADVVSTGRTLRQQGLAPFGEVLCTSEAVIVGRKDEKVTPEQQILLRRIQGILHAQNFLMLDYNVDRDNLDAATAVTPGLSGPTVSPLARDNWVAVRAMVPRRSANAIMDKLAGLGAEAILASEIRIARI	0.013 U/mg	–	–	0.013 U/mg	0 U/mg	0 U/mg	completely inhibited
HisG (N215R/L231F/T235A): ATP phosphoribosyltransferase variant N215R/L231F/T235A (protein) MLKIAVPNKGSLSERAMEILAEAGYAGRGDSKSLNVFDEANNVEFFFLRPKDIAIYVAGGQLDLGITGRDLARDSQADVHEVLSLGFGSSTFRYAAPADEEWSIEKLDGKRIATSYPNLVRDDLAARGLSAEVLRLDGAVEVSIKLGVADAIADVVSTGRTLRQQGLAPFGEVLCTSEAVIVGRKDEKVTPEQQILLRRIQGILHAQNFLMLDYRVDRDNLDAATAVTPGFSGPAVSPLARDNWVAVRAMVPRRSANAIMDKLAGLGAEAILASEIRIARI	0.408 U/mg	–	–	0.408 U/mg	0.157 U/mg	0 U/mg	–
HisG (N215K/G233H/T235Q): ATP phosphoribosyltransferase variant N215K/G233H/T235Q (protein) MLKIAVPNKGSLSERAMEILAEAGYAGRGDSKSLNVFDEANNVEFFFLRPKDIAIYVAGGQLDLGITGRDLARDSQADVHEVLSLGFGSSTFRYAAPADEEWSIEKLDGKRIATSYPNLVRDDLAARGLSAEVLRLDGAVEVSIKLGVADAIADVVSTGRTLRQQGLAPFGEVLCTSEAVIVGRKDEKVTPEQQILLRRIQGILHAQNFLMLDYKVDRDNLDAATAVTPGLSHPQVSPLARDNWVAVRAMVPRRSANAIMDKLAGLGAEAILASEIRIARI	1.3 U/mg	–	–	1.3 U/mg	0.679 U/mg	0.413 U/mg	–
HisG (N215R): ATP phosphoribosyltransferase variant with N215R substitution (protein) MLKIAVPNKGSLSERAMEILAEAGYAGRGDSKSLNVFDEANNVEFFFLRPKDIAIYVAGGQLDLGITGRDLARDSQADVHEVLSLGFGSSTFRYAAPADEEWSIEKLDGKRIATSYPNLVRDDLAARGLSAEVLRLDGAVEVSIKLGVADAIADVVSTGRTLRQQGLAPFGEVLCTSEAVIVGRKDEKVTPEQQILLRRIQGILHAQNFLMLDYRVDRDNLDAATAVTPGLSGPTVSPLARDNWVAVRAMVPRRSANAIMDKLAGLGAEAILASEIRIARI	0.021 U/mg	–	–	0.021 U/mg	0 U/mg	0 U/mg	–
HisG (G233H/T235Q): ATP phosphoribosyltransferase variant with G233H and T235Q substitutions (protein) MLKIAVPNKGSLSERAMEILAEAGYAGRGDSKSLNVFDEANNVEFFFLRPKDIAIYVAGGQLDLGITGRDLARDSQADVHEVLSLGFGSSTFRYAAPADEEWSIEKLDGKRIATSYPNLVRDDLAARGLSAEVLRLDGAVEVSIKLGVADAIADVVSTGRTLRQQGLAPFGEVLCTSEAVIVGRKDEKVTPEQQILLRRIQGILHAQNFLMLDYNVDRDNLDAATAVTPGLSHPQVSPLARDNWVAVRAMVPRRSANAIMDKLAGLGAEAILASEIRIARI	1.381 U/mg	–	–	1.381 U/mg	0.64 U/mg	0.542 U/mg	–
HisG (N215K/L231F/T235A): known HisG variant N215K/L231F/T235A (Biochimie. 2012 March; 94(3):829-38) (protein) MLKIAVPNKGSLSERAMEILAEAGYAGRGDSKSLNVFDEANNVEFFFLRPKDIAIYVAGGQLDLGITGRDLARDSQADVHEVLSLGFGSSTFRYAAPADEEWSIEKLDGKRIATSYPNLVRDDLAARGLSAEVLRLDGAVEVSIKLGVADAIADVVSTGRTLRQQGLAPFGEVLCTSEAVIVGRKDEKVTPEQQILLRRIQGILHAQNFLMLDYKVDRDNLDAATAVTPGFSGPAVSPLARDNWVAVRAMVPRRSANAIMDKLAGLGAEAILASEIRIARI	0.387 U/mg	–	–	0.387 U/mg	0.202 U/mg	0.023 U/mg	–
